Measurements: patent publication US20230144876A1 (UNIVERSITY OF KITAKYUSHU, published 2023)

Target: T1, MHC-1 (MHC class I molecules) on murine dendritic cell line DC2.4 cells (mouse, UniProt P01887 21-119; P01901 22-369)
T1 construct: whole, on cells; also called H-2Kb
T1 sequence (MHC heavy, looked up): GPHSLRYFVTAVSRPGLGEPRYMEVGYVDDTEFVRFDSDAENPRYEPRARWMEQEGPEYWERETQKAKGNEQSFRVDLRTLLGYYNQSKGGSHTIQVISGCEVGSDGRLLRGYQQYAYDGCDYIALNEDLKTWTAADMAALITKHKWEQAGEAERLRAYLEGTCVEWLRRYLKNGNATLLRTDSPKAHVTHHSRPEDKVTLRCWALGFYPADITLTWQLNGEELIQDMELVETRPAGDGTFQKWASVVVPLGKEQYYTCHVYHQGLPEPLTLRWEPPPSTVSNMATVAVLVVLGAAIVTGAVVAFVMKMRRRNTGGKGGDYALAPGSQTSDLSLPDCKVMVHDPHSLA
T1 sequence (b2m, looked up): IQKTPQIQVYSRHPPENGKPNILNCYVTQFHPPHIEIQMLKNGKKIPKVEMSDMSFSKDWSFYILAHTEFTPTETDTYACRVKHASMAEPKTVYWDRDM
Experiment: competitive inhibition of OVA peptide 1 binding to MHC-1 on DC2.4 cells, flow cytometry
Experimental: Murine dendritic cell line, DC2.4 cells, were detached from a dish, and suspended in 1.5 mL tubes at a concentration of 1.5×10⁵ cells per […] of PBS.

B1: C-TRP2-9 (cysteine added to the N-terminus of residues 180 to 188 of mTRP2) (peptide)
peptide: CSVYDFFVWL
notes: 10-mer; N-terminal Cys plus mTRP2 180-188; Free peptide in the assay
binding result: no binding (tested: 2.5 µg/mL)
